Columns and labels:
[1] = tested on: human NSCLC cell line NCI-H1792; assay: Attenuation of P1-induced IL-6 secretion in NCI-H1792 cells by pre-treatment with plant-produced cytokines (ELISA); format: cell-based; details: H1792 cells; pre-incubated 3 h, 1.0 ng/ml; P1 24 h
[2] = target: the molecule itself; assay: self-association (dimers and multimers) seen on SDS-PAGE and western blot
Experimental: Western blots membranes were visualized using the enhanced chemiluminescence (ECL) detection kit (GE Healthcare, Cat. No. RPN2232) and imaged with the DNR Bio-Imaging System MicroChemi (RANCOM A/S, Birkerød, Denmark). Densitometry was performed using the TotalLab TL 100 software (Nonlinear Dynamics, Durham, NC).

IA-stimulated PBMCs = assay: Counts of significant modulations over all treatments of IA-stimulated PBMCs (LPS or PHA); format: cell-based, human
Experimental: The bioactivity of our plantakines IL-37b and IL-38 was assessed by monitoring the secretion of 11 cytokines, generally regarded as inflammatory markers, from PBMCs stimulated with an IA. Freshly isolated human PBMCs were subjected to various treatments-combinations of the IAs with the plantakines at different concentrations. Two different model IAs were used, either the bacterial lipopolysaccharides (LPS) or a lectin from Phaseolus vulgaris (phytohaemagglutinin, PHA); each of the IAs was applied onto cells separately, each IA was applied at two concentrations: LPS at 150 and 300 μg/mL; PHA at 5 and 10 μg/mL. Each IA at each concentration was applied in combination with one of the two plantakines, each of them at three different concentrations: 1, 10 and 100 ng/ml of the monomeric forms present in the purified extracts. Also included were treatments comprised of either IA at their lower concentrations, in combination with both plantakines at 10 ng/ml concentration in order to assess possible synergistic effects. Cells with only IAs applied represented the reference (positive controls for each concentration), cells without any treatment represented the basal level (negative control). The levels of eleven different pro-inflammatory cytokines secreted into the medium from the PBMCs-GM-SCF, IFNγ. TNFα, IL-1α, IL-1β, IL-6, IL-8, IL-22, IL12, IL-17 and IL-10 were compared between the treatments and the controls. We applied Generalized Estimating Equation (GEE) model for the statistical data analysis. This statistical approach allows for nested observations and was used to test the effects of the plantakines IL-37b and IL-38 and their dosage in the context of IA-stimulated PBMCs inflammatory responses. […]
Non-linear logarithm transformation was performed to address non-normality of distribution of Luminex-derived numeric data. […] Separate analyses were conducted for each of the 11 monitored cytokines and each inflammatory agent/concentration combination. […]

[3] = separate applications, either IA, all concentrations

B1: plant-produced recombinant human IL-38, mature form C2-W152 with C-terminal 7xHIS tag (ligand)
chain: CSLPMARYYIIKYADQKALYTRDGQLLVGDPVADNCCAEKICILPNRGLARTKVPIFLGIQGGSRCLACVETEEGPSLQLEDVNIEELYKGGEEATRFTFFQSSSGSAFRLEAAAWPGWFLCGPAEPQQPVQLTKESEPSARTKFYFEQSWHHHHHHH
notes: range 2-152; also called rhIL-38; plantakine IL-38
[1]
  attenuation of IL-6 secretion triggered by P1: −60%
[2]
  binding result: binds
IA-stimulated PBMCs; all significant treatments
  attenuated rather than increased secretion of inflammatory cytokines, frequency ratio: 1.7 times
IA-stimulated PBMCs; [3]
  number of treatments in which secretion of inflammatory cytokines was increased: 22 treatments
  number of treatments in which secretion of inflammatory cytokines was suppressed: 30 treatments
